These results are taken from US20150329642A1 (Genmab, published 2015).

Changes are numbered by the printed parent chain.

The target of assay [1] is T1, human c-Met, membrane-bound on cells (human, UniProt P08581 25-1390).
T1 construct: whole, on cells; A431 cells carry on average 30,000 copies of c-Met per cell (Qifi); also called c-Met expressed on A431 cells; c-Met on A549 cells
As to the kind of experiment: flow cytometry on A431 cells. As for the experimental part: (§1) The binding of anti-c-Met antibodies and monovalent forms thereof (also termed “UniBody molecules” herein, see Example 5) to A431 cells expressing membrane-bound c-Met (purchased at ATCC, CRL-1555) was tested using flow cytometry (FACS Canto II, BD Biosciences). […] Binding of anti-c-Met antibodies and UniBody molecules was detected using a Phycoerythrin-conjugated goat-anti-human IgG antibody (Jackson). IgG1-5D5 was used as positive control antibody, and HuMab-KLH was used as isotype control antibody. EC₅₀ values were determined by means of non-linear regression (sigmoidal dose-response with variable slope) using GraphPad Prism V4.03 software (GraphPad Software, San Diego, Calif., USA).
(§2) Also maximum binding levels were unchanged between IgG1's and UniBody molecules. For antibodies 005, 006, 008, 035, 045 and 058, on the other hand, a more than 2-fold […] as well as a decrease in maximum binding level was observed when comparing IgG1 with their UniBody counterpart. This was most likely due to the […] (Kd) of these antibodies (see Example 14).

For assay [2], the target named is T1, human c-Met, membrane-bound on cells. As to the kind of experiment: flow cytometry on A431 cells (PE goat anti-human IgG); bottom panel. How it is done: as §1, §2
Assay [3] has the same target. As to the kind of experiment: flow cytometry on A431 cells (PE goat anti-human IgG); second panel. As for the experimental part: as §1, §2
Assay [4] shares this target. As to the kind of experiment: flow cytometry on A431 cells (PE goat anti-human IgG); third panel. How it is done:
as §1, §2

Assay [5] concerns the target T2, rhHGF R/Fc Chimera (R&D Systems; Cat.358MT/CF) (human, UniProt P08581 25-932).
T2 construct: Bought reagent; Fc part of the bought chimera not given; not described
As to the kind of experiment: ELISA on coated rhHGF R/Fc Chimera. As for the experimental part: c-Met binding properties of the mutants were tested in an ELISA. ELISA plate wells were coated overnight at 4° C. with rhHGF R/Fc Chimera (R&D Systems; Cat.358MT/CF) in PBS (1 μg/mL). Next, the wells were washed with PBST (PBS supplemented with 0.05% Tween-20 [Sigma-Aldrich, Zwijndrecht, The Netherlands]) and blocked for one hour at room temperature (RT) with PBSTC (PBST supplemented 2% [v/v] chicken serum [Gibco, Paisley, Scotland]). Subsequently, the wells were washed with PBST and incubated for one hour at RT with the anti-cMet antibodies and variants serially diluted in PBSTC (10 μg/mL in 4-fold dilutions). […] After washing, the reaction was visualized by a 15 min incubation with 2,2′-azino-bis(3-ethylbenzothiazoline-6-sulfonic acid) (ABTS: dilute one ABTS tablet in 50 mL ABTS buffer [Roche Diagnostics, Almere, The Netherlands]) at RT protected from light. The colorization was stopped by adding an equal volume of oxalic acid (Sigma-Aldrich, Zwijndrecht, The Netherlands). […] at 405 nm was measured on a microtiter plate reader (Biotek Instruments, Winooski, USA).

The target of assay [6] is T3, cMetECDHis (human, UniProt P08581 25-932, limits assumed, biotinylated in the cross-block ELISA of Example 17).
T3 construct: Expressed in HEK-293F cells; also called soluble cMetECDHis; biotinylated cMetECDHis
As to the kind of experiment: BLI (Octet); antibody captured, cMetECDHis in solution. As for the experimental part:
Antibody binding to cMetECDHis was analyzed by means of Bio-Layer Interferometry (BLI) technology on the Octet System (Fortebio, Menlo Park, USA). Anti-human IgG coated biosensors (Fc-specific) were used to capture anti-c-Met antibodies according to the procedure recommended by the manufacturer. cMetECDHis derived from HEK293 cells was loaded on top of the immobilized anti-c-Met antibodies by placing the loaded biosensor into a well containing 10 μg/mL cMetECDHis diluted in 10 times diluted kinetics buffer (Fortebio). The difference in reflection of light (AA, nm) of the biosensor surface due to the binding of cMetECDHis was measured in real time during approximately 10 minutes and was used by the Octet software (V4.0, Fortebio) to calculate the association constant (kₐ [1/M×s]). Next, the loaded biosensor was placed into a well containing only kinetics buffer (10 times diluted in PBS) to determine the dissociation constant (kd [1/s]). Kinetics analysis was performed to determine the affinity (KD [M]) using model 1:1 (langmuir). As a positive control, 0.2 μg/mL 5D5 IgG1 produced in HEK293 cells, was used.

Assay [7] has as its target T4, recombinant human c-Met extracellular domain (R&D systems) (human, UniProt P08581 25-932).
T4 construct: extracellular domain; Bought reagent; also called coated extracellular domain of c-Met; recombinant c-Met
As to the kind of experiment: competition ELISA, residual Europium-HGF signal at 615 nm at the lower plateau of the fit; sheet prints no competing mAb ~66000, no HGF-Europium ~600; lower panel. How it is done: (§3) ELISA wells were coated overnight at 4° C. with 0.5 μg/mL recombinant human c-Met extracellular domain (R&D systems, Minneapolis, USA) diluted in PBS. Next, the ELISA wells were washed with PBST (PBS supplemented with 0.05% Tween-20 [Sigma-Aldrich, Zwijndrecht, The Netherlands]) and blocked for one hour at room temperature (RT) with PBST supplemented with 2% (v/v) chicken serum (Gibco, Paisley, Scotland). […] Mean fluorescence intensity at 615 nm was measured using the EnVision 2101 Multilabel reader (PerkinElmer) applying the following settings: Lance/Delfia dual mirror, emission filter 615, excitation filter 340 nm, delay time 400 μs, window 400 μs, 100 flashes, 2000 μs per cycle and bidirectional row-by-row reading. To determine IC₅₀ values, the binding curves were analyzed with non-linear regression (sigmoidal dose-response with variable slope, top-values constrained to a shared value for all data-sets) using GraphPad Prism V4.03 software (GraphPad Software, San Diego, Calif., USA).
(§4) FIG. 5 depicts representative examples of HGF binding inhibition curves of anti-c-Met antibodies for binding to the extracellular domain of recombinant human c-Met. 5D5 was used as positive control antibody. All anti-c-Met antibodies in the experiment shown were able to compete with Europium^{3±}-conjugated HGF for binding to recombinant c-Met. […] Without adding Europium³⁺-conjugated HGF, roughly ˜600 relative fluorescent units (RFU) were detected, indicating the signal when maximal inhibition is accomplished. When binding of Europium³⁺-conjugated HGF was not inhibited, approximately ˜66,000 RFU were detected.

Assay [8] has as its target T4, recombinant human c-Met extracellular …. As to the kind of experiment: competition ELISA on coated recombinant c-Met extracellular domain; blocked ligand Europium-conjugated HGF; column headed EC50 on the sheet, called IC50 in paragraph 270; lower panel. How it is done: as §3, §4

B1: UniBody molecule of antibody 098 (other)
VH: QVQLVQSGAEVKKPGASVKVSCKASGYTFTNFGISWVRQAPGQGLEWMGWISAFNGHTDYSQKVQGRVTMTTDTSTSTAYMELRSLRSDDTAVFYCARSHYYGSGSPFDYWGQGTLVTVSS
VL: DIQMTQSPSSLSASVGDRVTITCRASQGISNWLAWYQQKPEKAPKSLIYAASSLQSGVPSRFSGSGSGTDFTLTISSLQPEDFATYYCHQYKSYPWTFGQGTKVEIK
As for B1, the “fold change of EC50, UniBody molecule against IgG1 of the identical clone” value (“fold change of EC50, UniBody molecule” below) in assay [1] is less than 2 fold. Besides, a half-maximal effect in assay [2] (EC50) was put at 1.16 nM.

B2: Uni-1016-005 (other)
VH: QVQLVQSGAEVKKPGSSVKVSCKASGGTFSSYGFGWVRQAPGQGLEWMGRISPILGIANYAQMFQGRVTITADKSTSTAYMELSSLRSEDTAVYYCARDVGYDWPDTFDIWGQGTMVIVSS
VL: B1 VL with N31S, S65G, H89Q, K92N, Y94F, W96P
notes: also called UniBody molecule of antibody 005
Consider B2, for which the “fold change of EC50, UniBody molecule” value in assay [1] was greater than 2 fold. Also, it took 5.8 nM to reach a half-maximal effect in assay [3] (EC50).

B3: UniBody molecule of antibody 024 (other)
VH: EVQLLESGGGLVQPGGSLRLSCVASGFTFSSYAMSWVRQAPGKGLEWVSAISGSSGGSTYYVDSVKGRFTISRANSKNTLYLQMNSLRAEDTAVYYCAKDLDRGWMGYFGYWGQGTLVTVSS
VL: DIQMTQSPSSVSASVGDRVTITCRASQGISSWLAWYQHKPGKAPKLLIYAASSLQSGVPSRFSGSGSGTDFTLTISSLQPEDFATYYCQQANSFPTFGQGTRLEIK
Regarding B3, the “fold change of EC50, UniBody molecule” value in assay [1] was less than 2 fold. Besides, the midpoint of the response in assay [4], the EC50, lay at 2.42 nM.

B4: Uni-1016-069-TE (other)
VH: QVQLVQSGAEVKKPGASVKVSCETSGYTFTSYGISWVRQAPGHGLEWMGWISAYNGYTNYAQKLQGRVTMTTDTSTSTAYMELRSLRSDDTAVYYCARDLRGTNYFDYWGQGTLVTVSS
VL: DIQMTQSPSSVSASVGDRVTITCRASQGISNWLAWFQHKPGKAPKLLIYAASSLLSGVPSRFSGSGSGTDFTLTISSLQPEDFATYYCQQANSFPITFGQGTRLEIK
notes: also called UniBody molecule of antibody 069
For the molecule B4, in assay [1], the “fold change of EC50, UniBody molecule” value is less than 2 fold. Further, the EC50 in assay [5] came to 0.0301 µg/mL; in assay [2], 0.6 nM.

B5: UniBody molecule of antibody 181 (other)
VH: B4 VH with E23K, T24A, H43Q, A53T, N104A
VL: B4 VL with F36Y
B5: the “fold change of EC50, UniBody molecule” value in assay [1] was less than 2 fold. Moreover, the midpoint of the response in assay [2], the EC50, lay at 0.847 nM.

B6: UniBody molecule of antibody 008 (other)
VH: EVQLVQSGAEVKKPGESLKISCKGSGYSFTSYWIGWVRQMPGKGLEWMGIIYPGDSETRYSPSFQGQVTISADKSISTAYLQWSSLKASDTAMYYCARQEITGEFDYWGQGTLVTVSS
VL: AIQLTQSPSSLSASVGDRVTITCRASQGISSALAWYQQKPGKAPKLLIYDASSLESGVPSRFSGSGSGTDFTLTISSLQPEDFATYYCQQFNSYPRTFGQGTKVEIK
For B6, the “fold change of EC50, UniBody molecule” value in assay [1] is greater than 2 fold. In assay [3], this molecule showed an EC50 of 1.85 nM.

B7: UniBody molecule of antibody 035 (other)
VH: B6 VH with E57D, S84N
VL: AIQLTQSPSSLSASVGDRVTITCRASQGISSALAWYQQKPGKAPKLLIYDASSLESGVPSRFSGSGSGTDFTLTISSLQPEDFATYYCQQFNSYPMYTFGQGTKLEIK
Turning to B7, the “fold change of EC50, UniBody molecule” value in assay [1] is greater than 2 fold. The EC50 in assay [4] turned out to be 9.32 nM.

B8: anti-c-Met HuMab 096 (IgG1) (antibody, V domains shown)
VH: B6 VH with E57D, E104D
VL: B6 VL with K45N, D50A, R96L, Q100G
notes: also called TH1016-096; PC1016-096
Consider B8, for which, in assay [6], binding was put at a Kd of 2.55 nM, the koff turned out to be 0.0005 s⁻¹ and the kon was determined as 196000 M⁻¹ s⁻¹. Further, in assay [7], the Bottom worked out at 24800 RFU. Moreover, in assay [8], the IC50 was found to be 0.0152 µg/mL.

B9: Uni-1016-045-TE (other)
VH: EVQLLESGGGLVQPGGSLRLSCAASGFTFSSYAMSWVRQAPGKGLEWVSVISGSGGITYYADSVKGRFTISRDNSKNTLYLQMNSLRAEDTAVYYCARDRGWGSDYWGQGTLVTVSS
VL: EIVLTQSPATLSLSPGERATLSCRASQSVSSYLAWYQQKPGQAPRLLIYDASNRATGIPARFSGSGSGTDFTLTISSLEPEDFAVYYCQQRSNWPFTFGPGTKVDIK
notes: also called UniBody molecule of antibody 045
For the molecule B9, the “fold change of EC50, UniBody molecule” value in assay [1] was greater than 2 fold. Also, the EC50 in assay [4] came to 12.2 nM.
